Our source for the protein production values is a protein production outcome set (Wang et al. 2014).

This series is described as follows: label from the status in PepcDB records.
Turning to “YGDINLNLLKDKGYTTLQDEAIKIFNSLQQLESMSDPIPIIQGILQTGHDLRPLRDELYCQLIKQTNKVPHPGSVGNLYSWQILTCLSCTFLPSRGILKYLKFHLKRIREQFPGTEMEKYALFTYESLKKTKCREFVPSRDEIEALIHRQEMTSTVYCHGGGSCKITINSHTTAGEVVEKLIRGLAMEDSRNMFALFEYNGHVDKAIESRTVVADVLAKFEKLAATSEVGDLPWKFYFKLYCFLDTDNVPKDSVEFAFMFEQAHEAVIHGHHPAPEENLQVLAALRLQYLQGDYTLHAAIPPLEEVYSLQRLKARISQSTKTFTPCERLEKRRTSFLEGTLRRSFRTGSVVRQKVEEEQMLDMWIKEEVSSARASIIDKWRKFQGMNQEQAMAKYMALIKEWPGYGSTLFDVECKEGGFPQELWLGVSADAVSVYKRGEGRPLEVFQYEHILSFGAPLANTYKIVVDERELLFETSEVVDVAKLMKAYISMIVKKRYSTTRSASSQGSSR”, the protein production entry is listed as “failed”. With “YLELNEIESIIKDINTKAQKMHSGIHKRFYLFVALMTEFQALNGMRIGEMLAIQNEDIDFDNKSLNINGTIHWFHDESGGFGVKDTTKTESSYRTIGLSSRSCEILKKAILENKKDSKWNDGYLNRNFVFTNHKGNPMQTERFNKILREAAKDVGIDKEVSSHILRHSHISLLSQQGVSLKAIMDRVGHSDHRTTLSIYSHVTEQMDKDMMNKLEQVKLG”, the protein production result is listed as “not failed”. Then “YLKVFDLDWHPDGMLDAKPALASADWKGLAELAQLSHKALEDAGLPQFEGSNAWAISGSRTQSGKPILAGDPHIRFSVPSVWYEAQLSAPGFELYGHFPALNPFAFLGHNMDFGWSLTMFQNDDVDLIAEKTNPDNPNQVWYHGQWVDMKRTEQQIAVKGQAPVTLTLIESPHGPIVNNVMGKNAGQTPIAMWWSFLVSANPVLDGFYDANRADTLDKMRSAAEKIQSPGLNIVWANAKGDIGWWAAAQLPIRPEGVNPGFILDGSTAQADKLGFYPFSANPHEENPARGYIVSANFQPLSPTGMQIPGYYNPAERGQELNRQLSDSSIKWDLAASKALQLSTQTDYAPSILRPLIPVLRSAISDPDELALVERLASWKGDYPVDSVGATLFN”, with “failed”.

Turning to “YMVPGLWGAPLKAVSAFAPPMKTQDFNLYTNEVHAKFDDYDLGMEYARQHNKPVMLDFTGYGCVNCRKMELAVWTDPKVSSIINNDYVLITLYVDNKTPLTEPVKIMENGTERTLRTVGDKWSYLQRVKFGANAQPFYVLIDNEGNPLNKSYAYDEDISKYINFLQTGLENYRKEK”, the protein production entry is “failed”.

In the case of “YQEPKGELVISAPTMFGRQHVLPVISEFIARYPLIRVRLLLSDRNADLVSDHVDLAVRIGDLADSSMVATRLGTMRIVACAHPALLAKYGEPQRPRDLAALPIIRIESPMPYRGWRFRAAEREDQLINLPPVLSVTTPESA”, the protein production entry is “failed”. With “YRATKLWNEVTTSFRAGMPLRKHRQHFKKYGNCFTAGEAVDWLYDLLRNNSNFGPEVTRQQTIQLLRKFLKNHVIEDIKGRWGSENVDDNNQLFRFPA”, the protein production entry is reported as “not failed”. As for “YRSKGEYHELLANHVAELSKLQNVLYADNRYAILLIFQAMDAAGKDSAIKHVMSGVNPQGCQVYSFKHPSATELEHDFLWRTNCVLPERGRIGIFNRSYYEEVLVVRVHPEILEMQNIPHNLAHNGKVWDHRYRSIVSHEQHLHCNGTRIVKFYLHLSKEEQRKRFLERIDDPNKNWKFSTADLEERKFWDQYMEAYESCLQETSTKDSPWFAVPADDKKNARLIVSRIVLDTLESLNLKYP”, the protein production entry is on record as “failed”. To “YSVTVKWGKEKFEGVELNTDEPPMVFKAQLFALTGVQPARQKVMVKGGTLKDDDWGNIKMKNGMTVLMMGSADALPEEPSAKT” belongs “not failed”; to “YTVEPVQDGERSVTLRRAGGTPLVAAMYHLPAAGSPDFVGLDLAATILADTPSGRLYHALVPTKLASGVFGFTMDQLDPGLAMFGAQLQPGMDQDKALQTLTATLESLSSKPFSQEELERARSKWLTAWQQTYADPEKVGVALSEAIASGDWRLFFLQRDRVRDAKLDDVQRAAVAYLVRSNRTEGRYIPTEKPQRAPLAQR”, “failed”; to “YTVRLETEHAKEILSSDSPWASLEMFSFYGNYLKLVRTEYEGLRLSSGDTVFFLGSGPLPLTLIVFFRLYGVKSTGIEKDSFRANLSKKVLEKLGLSSVIKIVNGNHFSLSRKDLSLSPDTGVKALMIAAQAEPKKEIFEHLLEVMPIGGRISC”, “failed”.
